Tests used:
[1] = target: Chk1 (UniProt O14757); assay: biotin-peptide streptavidin pull-down from lysate; conditions: reference: NC peptide with pT916 and pS945, untreated; sites T916,S945
[2] = target: Chk1 (UniProt O14757); assay: biotin-peptide streptavidin pull-down, purified Chk1; conditions: reference: NC peptide with pT916 and pS945, untreated; sites T916,S945

Claspin NC peptide, 901-955 (from UniProt Q9HAW4) NC peptide pretreated with λ-phosphatase
binding against the reference [1]: lost | binding against the reference [2]: lost
